Results: patent US20140057284A1, “PHOTOLUMINESCENT MOLECULAR COMPLEX AND METHOD FOR DETERMINING OF THE CONCENTRATION OF SAID MOLECULAR COMPLEX” (priority 2011, published 2014)

Assays:
[1] = target: catalytic subunit of cAMP-dependent protein kinase (PKAc) (Homo sapiens, UniProt P17612); experiment: Binding affinity to PKAc; conditions: towards PKAc
[2] = target: MNK2 (Homo sapiens, UniProt Q9HBH9); experiment: biochemical; conditions: read-out: Percentages of residual activities of the kinase reaction
Description: (§1) Selectivity testing (Table 2) was performed on the commercial basis at the Division of Signal Transduction Therapy, University of Dundee. ATP concentrations that were used in testing were close to the Km value of the kinase.

[3] = target: CHK2 (Homo sapiens, UniProt O96017); experiment: biochemical; conditions: read-out: Percentages of residual activities of the kinase reaction
Sequence of CHK2 (O96017 whole entry, species assumed): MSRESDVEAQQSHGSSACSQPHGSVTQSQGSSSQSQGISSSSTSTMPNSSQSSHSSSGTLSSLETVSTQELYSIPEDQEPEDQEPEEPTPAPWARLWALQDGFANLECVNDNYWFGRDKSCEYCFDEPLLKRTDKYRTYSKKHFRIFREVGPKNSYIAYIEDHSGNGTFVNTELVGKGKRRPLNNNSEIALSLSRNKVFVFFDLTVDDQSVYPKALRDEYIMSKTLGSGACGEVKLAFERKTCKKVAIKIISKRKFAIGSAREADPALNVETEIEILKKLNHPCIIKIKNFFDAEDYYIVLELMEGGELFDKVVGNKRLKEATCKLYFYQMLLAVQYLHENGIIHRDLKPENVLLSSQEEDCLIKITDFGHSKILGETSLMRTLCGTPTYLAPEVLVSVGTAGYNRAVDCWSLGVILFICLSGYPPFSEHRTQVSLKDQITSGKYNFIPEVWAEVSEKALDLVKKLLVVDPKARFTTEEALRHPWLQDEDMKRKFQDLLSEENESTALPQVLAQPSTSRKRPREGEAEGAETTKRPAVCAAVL
Description: as §1

[4] = target: NUAK1 (Homo sapiens, UniProt O60285); experiment: biochemical; conditions: read-out: Percentages of residual activities of the kinase reaction
Description: as §1

[5] = target: PAK2 (Homo sapiens, UniProt Q13177); experiment: biochemical; conditions: read-out: Percentages of residual activities of the kinase reaction
Description: as §1

[6] = target: IKKe (Homo sapiens, UniProt Q14164); experiment: biochemical; conditions: read-out: Percentages of residual activities of the kinase reaction
Description: as §1

[7] = target: ERK8 (Homo sapiens, UniProt Q8TD08); experiment: biochemical; conditions: read-out: Percentages of residual activities of the kinase reaction
Sequence of ERK8 (Q8TD08 whole entry, species assumed): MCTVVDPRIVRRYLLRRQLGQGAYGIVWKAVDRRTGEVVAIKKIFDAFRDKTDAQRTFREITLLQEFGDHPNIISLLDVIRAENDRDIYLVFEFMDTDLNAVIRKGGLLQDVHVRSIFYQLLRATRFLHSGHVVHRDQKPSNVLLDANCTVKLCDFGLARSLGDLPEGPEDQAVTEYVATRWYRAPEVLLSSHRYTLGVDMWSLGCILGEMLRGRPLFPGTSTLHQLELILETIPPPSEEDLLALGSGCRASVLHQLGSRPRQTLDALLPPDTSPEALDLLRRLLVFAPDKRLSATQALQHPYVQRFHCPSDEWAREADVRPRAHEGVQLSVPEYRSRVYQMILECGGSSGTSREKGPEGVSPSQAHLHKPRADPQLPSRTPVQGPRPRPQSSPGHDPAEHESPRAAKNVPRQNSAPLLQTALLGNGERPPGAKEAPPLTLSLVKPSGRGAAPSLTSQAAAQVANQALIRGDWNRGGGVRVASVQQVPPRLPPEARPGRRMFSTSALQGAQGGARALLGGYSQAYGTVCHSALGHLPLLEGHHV
Description: as §1

[8] = target: PKCa (Homo sapiens, UniProt P17252); experiment: biochemical; conditions: read-out: Percentages of residual activities of the kinase reaction
Description: as §1

[9] = target: PKBb (Homo sapiens, UniProt P31751); experiment: biochemical; conditions: read-out: Percentages of residual activities of the kinase reaction
Description: as §1

[10] = target: PRAK (Homo sapiens, UniProt Q8IW41); experiment: biochemical; conditions: read-out: Percentages of residual activities of the kinase reaction
Description: as §1

[11] = target: MARK2 (Homo sapiens, UniProt Q7KZI7); experiment: biochemical; conditions: read-out: Percentages of residual activities of the kinase reaction
Description: as §1

[12] = target: VEG-FR (Homo sapiens, UniProt P17948); experiment: biochemical; conditions: read-out: Percentages of residual activities of the kinase reaction
Description: as §1

[13] = target: EPH-A4 (Homo sapiens, UniProt P54764); experiment: biochemical; conditions: read-out: Percentages of residual activities of the kinase reaction
Description: as §1

[14] = target: Aurora A (Homo sapiens, UniProt O14965); experiment: biochemical; conditions: read-out: Percentages of residual activities of the kinase reaction
Description: as §1

[15] = target: MKK6 (Homo sapiens, UniProt P52564); experiment: biochemical; conditions: read-out: Percentages of residual activities of the kinase reaction
Sequence of MKK6 (P52564 whole entry, species assumed): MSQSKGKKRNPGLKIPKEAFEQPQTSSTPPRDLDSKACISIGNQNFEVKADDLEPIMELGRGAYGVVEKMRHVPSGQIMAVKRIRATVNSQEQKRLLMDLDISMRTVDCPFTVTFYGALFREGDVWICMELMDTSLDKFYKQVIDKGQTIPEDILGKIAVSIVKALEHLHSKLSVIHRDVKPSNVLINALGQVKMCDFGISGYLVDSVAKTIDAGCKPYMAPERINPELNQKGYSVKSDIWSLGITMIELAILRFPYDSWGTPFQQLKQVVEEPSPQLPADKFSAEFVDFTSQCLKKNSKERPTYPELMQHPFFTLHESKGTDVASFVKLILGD
Description: as §1

[16] = target: PRK2 (Homo sapiens, UniProt Q16513); experiment: biochemical; conditions: read-out: Percentages of residual activities of the kinase reaction
Description: as §1

[17] = target: IKKb (Homo sapiens, UniProt O14920); experiment: biochemical; conditions: read-out: Percentages of residual activities of the kinase reaction
Description: as §1

[18] = target: MNK1 (Homo sapiens, UniProt Q9BUB5); experiment: biochemical; conditions: read-out: Percentages of residual activities of the kinase reaction
Description: as §1

[19] = target: p38b MAPK (Homo sapiens, UniProt Q15759); experiment: biochemical; conditions: read-out: Percentages of residual activities of the kinase reaction
Description: as §1

[20] = target: MEKK1 (Homo sapiens, UniProt Q13233); experiment: biochemical; conditions: read-out: Percentages of residual activities of the kinase reaction
Sequence of MEKK1 (Q13233 whole entry, species assumed): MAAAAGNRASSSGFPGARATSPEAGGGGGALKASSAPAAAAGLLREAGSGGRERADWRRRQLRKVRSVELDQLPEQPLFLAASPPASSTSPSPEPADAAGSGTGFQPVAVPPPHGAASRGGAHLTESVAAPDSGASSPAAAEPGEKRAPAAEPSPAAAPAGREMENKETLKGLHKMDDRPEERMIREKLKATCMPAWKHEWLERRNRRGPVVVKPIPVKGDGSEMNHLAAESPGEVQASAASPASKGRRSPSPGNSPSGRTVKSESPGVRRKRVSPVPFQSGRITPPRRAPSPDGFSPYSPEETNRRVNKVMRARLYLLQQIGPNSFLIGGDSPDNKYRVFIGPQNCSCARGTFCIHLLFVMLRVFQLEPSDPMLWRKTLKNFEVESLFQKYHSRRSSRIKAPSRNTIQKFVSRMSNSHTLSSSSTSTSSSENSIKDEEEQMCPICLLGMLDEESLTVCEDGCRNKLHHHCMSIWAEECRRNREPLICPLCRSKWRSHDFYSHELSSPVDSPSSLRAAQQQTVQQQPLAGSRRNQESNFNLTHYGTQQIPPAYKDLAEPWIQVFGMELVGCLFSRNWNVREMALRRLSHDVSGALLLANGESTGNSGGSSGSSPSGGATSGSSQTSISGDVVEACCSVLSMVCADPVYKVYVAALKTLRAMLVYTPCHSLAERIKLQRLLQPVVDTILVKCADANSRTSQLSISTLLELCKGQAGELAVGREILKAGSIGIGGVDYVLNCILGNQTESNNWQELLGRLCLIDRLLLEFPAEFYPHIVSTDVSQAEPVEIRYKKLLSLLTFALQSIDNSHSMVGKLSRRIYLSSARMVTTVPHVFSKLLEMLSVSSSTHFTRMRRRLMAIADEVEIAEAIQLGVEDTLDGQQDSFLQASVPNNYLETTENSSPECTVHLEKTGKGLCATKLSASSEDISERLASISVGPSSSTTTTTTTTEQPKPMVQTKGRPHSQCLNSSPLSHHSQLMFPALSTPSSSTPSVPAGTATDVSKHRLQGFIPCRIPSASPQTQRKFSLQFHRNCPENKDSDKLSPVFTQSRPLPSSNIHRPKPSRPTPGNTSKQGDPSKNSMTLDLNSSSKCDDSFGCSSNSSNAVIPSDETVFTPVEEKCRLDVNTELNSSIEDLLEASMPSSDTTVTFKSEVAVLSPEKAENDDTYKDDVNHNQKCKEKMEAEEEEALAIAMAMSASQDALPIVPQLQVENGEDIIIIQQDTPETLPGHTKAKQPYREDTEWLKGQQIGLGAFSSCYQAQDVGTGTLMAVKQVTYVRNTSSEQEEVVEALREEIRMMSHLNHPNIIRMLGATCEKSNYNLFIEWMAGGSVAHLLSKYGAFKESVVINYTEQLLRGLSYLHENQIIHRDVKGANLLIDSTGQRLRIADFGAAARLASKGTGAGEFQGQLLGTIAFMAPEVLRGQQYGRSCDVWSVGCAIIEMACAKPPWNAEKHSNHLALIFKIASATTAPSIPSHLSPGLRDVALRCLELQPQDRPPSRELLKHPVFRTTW
Description: as §1

[21] = target: PKBa (Homo sapiens, UniProt P31749); experiment: biochemical; conditions: read-out: Percentages of residual activities of the kinase reaction
Description: as §1

[22] = target: EPH-B2 (Homo sapiens, UniProt P29323); experiment: biochemical; conditions: read-out: Percentages of residual activities of the kinase reaction
Sequence of EPH-B2 (P29323 19-1055, species assumed): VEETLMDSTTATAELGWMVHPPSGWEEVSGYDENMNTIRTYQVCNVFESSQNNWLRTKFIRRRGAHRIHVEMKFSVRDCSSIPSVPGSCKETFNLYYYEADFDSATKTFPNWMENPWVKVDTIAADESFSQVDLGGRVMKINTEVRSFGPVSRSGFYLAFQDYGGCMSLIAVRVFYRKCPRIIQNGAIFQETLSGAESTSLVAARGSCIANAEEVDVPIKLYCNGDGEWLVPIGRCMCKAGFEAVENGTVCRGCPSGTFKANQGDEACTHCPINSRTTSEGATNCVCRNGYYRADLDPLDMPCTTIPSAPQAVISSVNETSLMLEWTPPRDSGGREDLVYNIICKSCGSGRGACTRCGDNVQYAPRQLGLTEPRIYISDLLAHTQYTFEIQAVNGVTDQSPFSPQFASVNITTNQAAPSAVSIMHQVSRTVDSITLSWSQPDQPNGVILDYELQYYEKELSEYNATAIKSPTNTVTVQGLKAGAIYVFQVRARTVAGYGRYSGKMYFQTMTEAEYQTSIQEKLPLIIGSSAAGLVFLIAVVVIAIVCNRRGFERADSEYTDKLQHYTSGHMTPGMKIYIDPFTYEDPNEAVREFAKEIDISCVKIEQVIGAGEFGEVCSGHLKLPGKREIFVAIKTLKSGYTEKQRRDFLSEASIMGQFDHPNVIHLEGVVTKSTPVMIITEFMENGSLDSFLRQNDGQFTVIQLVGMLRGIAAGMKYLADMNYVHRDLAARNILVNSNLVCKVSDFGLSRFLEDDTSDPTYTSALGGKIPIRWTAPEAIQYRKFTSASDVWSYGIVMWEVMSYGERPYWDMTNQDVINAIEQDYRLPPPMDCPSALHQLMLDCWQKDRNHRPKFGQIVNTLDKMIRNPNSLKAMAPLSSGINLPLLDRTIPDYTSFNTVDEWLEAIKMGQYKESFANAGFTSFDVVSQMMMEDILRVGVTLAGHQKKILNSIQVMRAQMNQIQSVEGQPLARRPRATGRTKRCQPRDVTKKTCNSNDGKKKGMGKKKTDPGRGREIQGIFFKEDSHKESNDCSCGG
Description: as §1

[23] = target: Lck (Homo sapiens, UniProt P06239); experiment: biochemical; conditions: read-out: Percentages of residual activities of the kinase reaction
Description: as §1

[24] = target: BRK (Homo sapiens, UniProt Q13882); experiment: biochemical; conditions: read-out: Percentages of residual activities of the kinase reaction
Sequence of BRK (Q13882 whole entry, species assumed): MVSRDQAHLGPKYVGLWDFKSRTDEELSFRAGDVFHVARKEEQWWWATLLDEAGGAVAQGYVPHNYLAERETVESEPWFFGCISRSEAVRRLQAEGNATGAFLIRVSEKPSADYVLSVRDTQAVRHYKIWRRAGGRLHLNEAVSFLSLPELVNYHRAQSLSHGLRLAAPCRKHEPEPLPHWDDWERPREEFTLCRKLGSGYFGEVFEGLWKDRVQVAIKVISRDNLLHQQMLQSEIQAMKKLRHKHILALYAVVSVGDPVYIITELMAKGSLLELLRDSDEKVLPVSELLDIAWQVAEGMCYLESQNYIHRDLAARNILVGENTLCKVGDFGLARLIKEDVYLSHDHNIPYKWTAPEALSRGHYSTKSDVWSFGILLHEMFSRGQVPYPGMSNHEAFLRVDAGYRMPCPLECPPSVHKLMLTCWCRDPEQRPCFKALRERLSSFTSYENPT
Description: as §1

[25] = target: HIPK3 (Homo sapiens, UniProt Q9H422); experiment: biochemical; conditions: read-out: Percentages of residual activities of the kinase reaction
Description: as §1

[26] = target: PIM3 (Homo sapiens, UniProt Q86V86); experiment: biochemical; conditions: read-out: Percentages of residual activities of the kinase reaction
Description: as §1

[27] = target: MAPKAP-K2 (Homo sapiens, UniProt P49137); experiment: biochemical; conditions: read-out: Percentages of residual activities of the kinase reaction
Description: as §1

[28] = target: IRR (Homo sapiens, UniProt P14616); experiment: biochemical; conditions: read-out: Percentages of residual activities of the kinase reaction
Description: as §1

[29] = target: DAPK1 (Homo sapiens, UniProt P53355); experiment: biochemical; conditions: read-out: Percentages of residual activities of the kinase reaction
Description: as §1

[30] = target: CSK (Homo sapiens, UniProt P41240); experiment: biochemical; conditions: read-out: Percentages of residual activities of the kinase reaction
Description: as §1

[31] = target: MST4 (Homo sapiens, UniProt Q9P289); experiment: biochemical; conditions: read-out: Percentages of residual activities of the kinase reaction
Sequence of MST4 (Q9P289 whole entry, species assumed): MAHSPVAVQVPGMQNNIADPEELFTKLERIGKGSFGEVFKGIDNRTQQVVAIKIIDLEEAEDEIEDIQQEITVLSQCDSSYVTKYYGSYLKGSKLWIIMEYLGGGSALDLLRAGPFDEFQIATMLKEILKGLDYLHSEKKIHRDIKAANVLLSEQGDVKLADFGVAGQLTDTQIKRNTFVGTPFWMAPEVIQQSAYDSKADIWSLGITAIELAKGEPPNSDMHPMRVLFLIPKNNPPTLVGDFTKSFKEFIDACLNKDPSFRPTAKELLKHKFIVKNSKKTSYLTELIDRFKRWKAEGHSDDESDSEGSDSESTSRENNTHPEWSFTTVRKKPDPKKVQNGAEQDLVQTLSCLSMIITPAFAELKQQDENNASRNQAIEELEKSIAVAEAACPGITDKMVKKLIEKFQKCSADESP
Description: as §1

[32] = target: EPH-A2 (Homo sapiens, UniProt P29317); experiment: biochemical; conditions: read-out: Percentages of residual activities of the kinase reaction
Description: as §1

[33] = target: MKK2 (Homo sapiens, UniProt P36507); experiment: biochemical; conditions: read-out: Percentages of residual activities of the kinase reaction
Description: as §1

[34] = target: MARK1 (Homo sapiens, UniProt Q9P0L2); experiment: biochemical; conditions: read-out: Percentages of residual activities of the kinase reaction
Description: as §1

[35] = target: ERK1 (Homo sapiens, UniProt P27361); experiment: biochemical; conditions: read-out: Percentages of residual activities of the kinase reaction
Description: as §1

[36] = target: HIPK1 (Homo sapiens, UniProt Q86Z02); experiment: biochemical; conditions: read-out: Percentages of residual activities of the kinase reaction
Description: as §1

Structure (SMILES): CN(C)c1ccc2c(c1)Oc1cc(N(C)C)ccc1C21OC(=O)c2cc(C(=O)NCCCC[C@@H](NC(=O)[C@@H](CCCNC(=N)N)NC(=O)[C@@H](CCCNC(=N)N)NC(=O)[C@@H](CCCNC(=N)N)NC(=O)[C@@H](CCCNC(=N)N)NC(=O)[C@@H](CCCNC(=N)N)NC(=O)[C@@H](CCCNC(=N)N)NC(=O)CCCCCNC(=O)[C@@H](CCCNC(=N)N)NC(=O)CCCCCNC(=O)c3ccc(-c4ccnc(N)n4)s3)C(N)=O)ccc21 [ARC-669]
- Kd [1]: 0.1 nM
- remaining activity at 1 µM [2]: 76%
- remaining activity at 1 µM [3]: 28%
- remaining activity at 1 µM [4]: 12%
- remaining activity at 1 µM [5]: 43%
- remaining activity at 1 µM [6]: 37%
- remaining activity at 1 µM [7]: 23%
- remaining activity at 1 µM [8]: 15%
- remaining activity at 1 µM [9]: 4%
- remaining activity at 1 µM [10]: 63%
- remaining activity at 1 µM [11]: 77%
- remaining activity at 1 µM [12]: 25%
- remaining activity at 1 µM [13]: 76%
- remaining activity at 1 µM [14]: 86%
- remaining activity at 1 µM [15]: 107%
- remaining activity at 1 µM [16]: 4%
- remaining activity at 1 µM [17]: 50%
- remaining activity at 1 µM [18]: 74%
- remaining activity at 1 µM [19]: 71%
- remaining activity at 1 µM [20]: 19%
- remaining activity at 1 µM [21]: 1%
- remaining activity at 1 µM [22]: 96%
- remaining activity at 1 µM [23]: 11%
- remaining activity at 1 µM [24]: 100%
- remaining activity at 1 µM [25]: 97%
- remaining activity at 1 µM [26]: 7%
- remaining activity at 1 µM [27]: 13%
- remaining activity at 1 µM [28]: 32%
- remaining activity at 1 µM [29]: 20%
- remaining activity at 1 µM [30]: 51%
- remaining activity at 1 µM [31]: 45%
- remaining activity at 1 µM [32]: 98%
- remaining activity at 1 µM [33]: 68%
- remaining activity at 1 µM [34]: 65%
- remaining activity at 1 µM [35]: 114%
- remaining activity at 1 µM [36]: 94%
